Data on two sequences can be found in US20230272016A1, “PEPTIDES FOR IMMUNOTHERAPY” (Second Genome, Inc., priority 2020, published 2023).

What all share (format): cell-based
Assay [1] addresses T1, CXCR3 (Homo sapiens, UniProt P49682).
T1 sequence (P49682 1-368): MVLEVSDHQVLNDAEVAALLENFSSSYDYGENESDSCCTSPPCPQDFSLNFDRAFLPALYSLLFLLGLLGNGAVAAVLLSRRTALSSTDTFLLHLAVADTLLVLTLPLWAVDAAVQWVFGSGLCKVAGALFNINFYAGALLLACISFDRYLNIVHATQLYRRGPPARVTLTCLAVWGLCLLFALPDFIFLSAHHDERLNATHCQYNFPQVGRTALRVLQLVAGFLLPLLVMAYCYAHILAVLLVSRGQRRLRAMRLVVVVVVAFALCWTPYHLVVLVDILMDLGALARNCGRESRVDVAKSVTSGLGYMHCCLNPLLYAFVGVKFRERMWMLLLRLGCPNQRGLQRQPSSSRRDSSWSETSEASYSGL
Put plainly: SelectScreen chemokine receptor U2OS agonist/antagonist assay. Further details: host or cells: CXCR3-bla U2OS. To be noted: CXCR3-bla U2OS cells; for SelectScreen Antagonist Mode: control agonist I-TAC (CXCL11) at EC80. The procedure: Peptides SG-3-00802 and SG-3-05021 were screened for agonist and antagonist activity of the chemokine receptors CCR7, CXCR3, and CXCR4.
In agonist assays, chemokine receptor expressing U2OS cells are thawed and resuspended in Assay Media (DMEM, 1% dialyzed FBS, 25 mM HEPES pH 7.3, 0.1 mM NEAA, 100 U/mL/100 μg/mL Pen/Strep) to a concentration of 312,500 cells/mL. 4 μL of a 10×serial dilution of I-TAC (control agonist starting concentration, 500 nM) or compounds are added to appropriate wells of a 384-well TC-Treated assay plate. 32 μL of cell suspension (10,000 cells) is added to each well. 4 μL of Assay Media is added to all wells to bring the final assay volume to 40 μL. The plate is incubated for 16-24 hours at 37° C./5% CO2 in a humidified incubator. 8 μL of 1 μM Substrate+Solution D Loading Solution is added to each well and the plate is incubated for 2 hours at room temperature. The plate is read on a fluorescence plate reader.
In antagonist assays, CXCR3-bla U2OS cells were thawed and prepared as described above for the Agonist assay. 4 μL of 10×compounds or assay media was added to appropriate wells of a TC-Treated assay plate. 32 μL of cell suspension was added to the wells and pre-incubated at 37° C./5% CO2 in a humidified incubator with compounds and control antagonist titration for 30 minutes. 4 μL of 10×control agonist I-TAC at the pre-determined EC80 concentration is added to wells containing the control antagonist or compounds. The plate is incubated for 16-24 hours at 37° C./5% CO2 in a humidified incubator. 8 μL of 1 μM Substrate+Solution D Loading Solution is added to each well and the plate is incubated for 2 hours at room temperature. The plate is read on a fluorescence plate reader.
Activity assays for CXCR4, CXCR3, and CCR7 were performed in agonist and antagonist mode for both SG-3-00802 and SG-3-05021 peptides. […] SG-3-00802 and SG-3-05021 may allow for a mechanism to enhance CXCR3 activation already shown to be a critical pathway in numerous publications as mediating anti-tumor treatment.

The target of assay [2] is T1, CXCR3. As to the kind of experiment: PathHunter β-Arrestin GPCR assay (gpcrMAX). The note with it: vehicle DMSO = 0%, control ligand = 100%. The text has this:
(§1) The PathHunter® β-Arrestin Assay monitored activation of a panel of 168 G-protein coupled receptors (GPCRs) with […] activation of the GPCR in agonist and antagonist mode.
(§2) where the test sample is the peptide, the vehicle control=DMSO (0% activity), and the control ligand=control compound (100% activity).
(§3) Peptides SG-3-00802 and SG-3-05021 were identified as an agonist, an antagonist, a PAM (Positive Allosteric Modulator), or an inverse-agonist. Agonist, antagonist, PAM, and inverse-agonist were identified according to the guidelines in Table 18. The basal activity/noise is a % activity of −20% to 20% for both agonist and antagonist modes. A PAM (Positive Allosteric Modulator) binds to a receptor, at a different site than the agonist, to change the receptor's response to the agonist. An inverse-Agonist is a binding partner with agonistic shutting down of basal activity in the cell. An antagonist antagonizes the activity of a particular binding partner.

The next assay addresses T2, CXCR4 (Homo sapiens, UniProt P61073).
T2 construct: expressed in transfected cells
As to the kind of experiment: PathHunter β-Arrestin GPCR assay (gpcrMAX). To be noted: vehicle DMSO = 0%, control ligand = 100%.
Excerpt: as §1, §2, §3

The target of another assay is T3, CCR7 (Homo sapiens, UniProt P32248).
T3 construct: expressed in transfected cells
T3 sequence (P32248 25-378): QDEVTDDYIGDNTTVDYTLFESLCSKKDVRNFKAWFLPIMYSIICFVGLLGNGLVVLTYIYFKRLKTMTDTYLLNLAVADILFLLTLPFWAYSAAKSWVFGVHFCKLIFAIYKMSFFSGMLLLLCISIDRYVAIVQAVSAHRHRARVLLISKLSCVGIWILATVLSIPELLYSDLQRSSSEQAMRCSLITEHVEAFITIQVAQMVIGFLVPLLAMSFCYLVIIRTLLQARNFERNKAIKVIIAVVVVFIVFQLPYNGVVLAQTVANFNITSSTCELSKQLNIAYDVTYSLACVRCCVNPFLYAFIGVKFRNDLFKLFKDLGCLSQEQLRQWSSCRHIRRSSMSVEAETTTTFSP
Put plainly: PathHunter β-Arrestin GPCR assay (gpcrMAX). To be noted: vehicle DMSO = 0%, control ligand = 100%.
Excerpt: as §1, §2, §3

The target in another assay is T4, SSTR1 (Homo sapiens, UniProt P30872).
T4 construct: expressed in transfected cells
T4 sequence (P30872 whole entry): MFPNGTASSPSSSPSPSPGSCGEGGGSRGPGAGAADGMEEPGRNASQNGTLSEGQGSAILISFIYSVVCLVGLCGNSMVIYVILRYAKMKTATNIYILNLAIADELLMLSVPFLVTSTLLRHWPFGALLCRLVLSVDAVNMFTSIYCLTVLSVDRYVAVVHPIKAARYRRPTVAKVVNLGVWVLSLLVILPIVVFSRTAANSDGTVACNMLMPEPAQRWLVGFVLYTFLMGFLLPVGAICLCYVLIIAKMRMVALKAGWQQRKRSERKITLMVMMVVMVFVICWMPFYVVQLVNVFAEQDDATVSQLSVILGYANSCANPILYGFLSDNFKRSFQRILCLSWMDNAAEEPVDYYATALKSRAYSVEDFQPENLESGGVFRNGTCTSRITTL
Put plainly: PathHunter β-Arrestin GPCR assay (gpcrMAX).
Excerpt: as §1, §2, §3

Assay [3] deals with human purified monocyte-derived dendritic cells. Put plainly: Chemokine release from LPS stimulated monocyte-derived dendritic cells. To be noted: LPS at low concentrations, suboptimal activation. The text has this: LPS was used at low concentrations for a suboptimal activation of dendritic cells in the presence of SG-3-00802 peptide or SG-3-05021 peptide.
The test system of assay [4] is Human monocyte-derived dendritic cells (moDCs). Put plainly: moDC stimulation with low dose LPS and peptide, flow cytometry. To be noted: LPS 2 ng/mL with peptide 10 μM. How it is done: Human monocyte-derived dendritic cells (moDCs) were stimulated with low dose lipopolysaccharide (LPS) (2 ng/mL) alone, LPS with peptides SG-3-00802 (10 μM) or SG-3-05021 (10 μM), and LPS (2 ng/mL) with IFNg (50 ng/mL) as a positive control. After stimulation of moDCs, flow cytometry was used to determine induction of the CSCR3 receptor.

In a further assay the test system is CXCL10 production. As to the kind of experiment: Three point dose response cytokine screen of microbiome peptides. To be noted: three point dose response curve. The procedure: Studies were performed to identify target peptides that induced CXCL10 production. Target peptides identified from human microbiomes isolated from humans that responded to anti-PD-1 therapy were each tested in a three point dose response curve with TNF-α, CXCL10, IL6, and INF-γ. […] Peptide sequences and characteristics can be found in Tables 13-15.

Entries after “also recorded” stand apart in the source; their conditions may differ.

T2 sequence (P61073 whole entry): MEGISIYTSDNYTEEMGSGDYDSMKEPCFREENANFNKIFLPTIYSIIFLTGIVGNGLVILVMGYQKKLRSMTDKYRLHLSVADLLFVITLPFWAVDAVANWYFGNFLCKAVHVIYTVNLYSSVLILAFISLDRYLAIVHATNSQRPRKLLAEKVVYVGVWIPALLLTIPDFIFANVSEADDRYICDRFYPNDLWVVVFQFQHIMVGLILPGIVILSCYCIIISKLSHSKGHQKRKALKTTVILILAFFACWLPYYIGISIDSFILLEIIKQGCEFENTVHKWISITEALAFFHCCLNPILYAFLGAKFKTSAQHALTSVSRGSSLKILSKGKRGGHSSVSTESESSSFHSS

For the sequence “LGKTDWIEKYFKVKKEKIDKMQRFLQG [SG-3-05021, peptide from bacteroides.clarus.dsm.22519]”, in the assay with CXCR3 [1], the “SelectScreen Agonist Mode” value is “no agonistic activity and No”; the “SelectScreen Antagonist Mode” value is recorded as “sensitized CXCR3; also recorded: Sensitizer”. Further, in the assay with CXCR3 [2], the “% Agonist Activity (gpcrMAX Agonist Mode)” value (“% Agonist Activity” for short) is recorded as −4% and the “% Antagonist Activity (gpcrMAX Antagonist Mode)” value (“% Antagonist Activity” for short) was −20%. Moreover, in the assay with CXCR4, the “% Agonist Activity” value is recorded as 1% and the “% Antagonist Activity” value worked out at 10%. In the assay with CCR7, the “% Agonist Activity” value came to 0% and the “% Antagonist Activity” value is reported as −18%. The “GPCR target assay Interpretation” value with SSTR1 was “Inverse-agonist and PAM”. Besides, the CXCL10 chemokine release result in assay [3] is recorded as “dose-dependent increase”. Besides, in assay [4], the CXCR3 receptor internalization result is “did not induce CXCR3 receptor internalization” and the DC-SIGN expression result is “down-regulate DC-SIGN”. Moreover, in the assay on CXCL10 production, the CXCL10 induction result is listed as “high CXCL10 induction”.
On to “MKVRPSVKPMCEKCKIIRRKGRVMVICENPKHKQRQG [SG-3-00802, peptide from oscillibacter.sp t_155102]”, for which, in the assay with CXCR3 [1], the “SelectScreen Agonist Mode” value is “weak agonistic activity and No”; the “SelectScreen Antagonist Mode” value is given as “potent reverse antagonistic activity (sensitization); also recorded: sensitized CXCR3; also recorded: Sensitizer”. In the assay with SSTR1, the “GPCR target assay Interpretation” value was “Inverse-agonist”. In addition, in assay [3], the CXCL10 chemokine release result is “dose-dependent increase”. For the same sequence, in assay [4], the CXCR3 receptor internalization entry was “did not induce CXCR3 receptor internalization” and the DC-SIGN expression entry is given as “down-regulate DC-SIGN”. The CXCL10 induction result with CXCL10 production was “high CXCL10 induction”.
